Experimental findings from patent US20210122824A1 are described below.

Test in all cases: flow cytometry, HEK293F cells transiently expressing the target, 100 nM antibody, PE anti-human Fc; Mean (PE-A against FITC-A, GFP surrogate)
The target of test [1] is human B7-H3 expressed on HEK293F cells (human) (UniProt Q5ZPR3).
Test [2] concerns the target human CTLA4 expressed on HEK293F cells (human) (UniProt P16410).
Test [3] deals with human LAG3 expressed on HEK293F cells (human) (UniProt P18627).
Sequence of human LAG3 expressed on HEK293F cells (human) (P18627 23-525): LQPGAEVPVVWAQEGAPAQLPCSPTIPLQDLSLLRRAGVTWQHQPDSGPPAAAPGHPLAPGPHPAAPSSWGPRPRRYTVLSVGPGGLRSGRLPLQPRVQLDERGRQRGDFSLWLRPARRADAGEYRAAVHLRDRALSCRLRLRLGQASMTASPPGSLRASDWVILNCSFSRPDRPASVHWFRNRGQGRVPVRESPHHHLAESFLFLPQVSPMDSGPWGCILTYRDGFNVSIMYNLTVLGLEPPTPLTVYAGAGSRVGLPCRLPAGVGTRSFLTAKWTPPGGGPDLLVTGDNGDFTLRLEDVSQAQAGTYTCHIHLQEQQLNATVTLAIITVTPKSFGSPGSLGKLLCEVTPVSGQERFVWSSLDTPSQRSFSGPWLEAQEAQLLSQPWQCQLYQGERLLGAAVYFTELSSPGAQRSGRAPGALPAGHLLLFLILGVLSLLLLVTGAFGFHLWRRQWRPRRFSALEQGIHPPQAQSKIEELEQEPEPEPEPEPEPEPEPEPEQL
Test [4] concerns the target human PD-L1 expressed on cell surface (human) (UniProt Q9NZQ7).
Test [5] deals with human PD1 expressed on HEK293F cells (human) (UniProt Q15116).
Sequence of human PD1 expressed on HEK293F cells (human) (Q15116 25-288): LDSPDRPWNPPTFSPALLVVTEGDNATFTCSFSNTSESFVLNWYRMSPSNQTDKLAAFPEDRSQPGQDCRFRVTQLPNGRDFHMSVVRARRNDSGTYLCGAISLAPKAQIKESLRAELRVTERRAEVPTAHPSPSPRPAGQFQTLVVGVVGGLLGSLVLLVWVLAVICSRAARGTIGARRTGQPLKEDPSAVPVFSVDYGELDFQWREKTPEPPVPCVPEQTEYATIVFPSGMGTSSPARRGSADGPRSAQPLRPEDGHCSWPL
The target in test [6] is human TIM3 expressed on HEK293F cells (human) (UniProt Q8TDQ0).
The target of test [7] is mouse PD-L1 expressed on HEK293F cells (mouse) (UniProt Q9EP73).
Sequence of mouse PD-L1 expressed on HEK293F cells (mouse) (Q9EP73 19-290): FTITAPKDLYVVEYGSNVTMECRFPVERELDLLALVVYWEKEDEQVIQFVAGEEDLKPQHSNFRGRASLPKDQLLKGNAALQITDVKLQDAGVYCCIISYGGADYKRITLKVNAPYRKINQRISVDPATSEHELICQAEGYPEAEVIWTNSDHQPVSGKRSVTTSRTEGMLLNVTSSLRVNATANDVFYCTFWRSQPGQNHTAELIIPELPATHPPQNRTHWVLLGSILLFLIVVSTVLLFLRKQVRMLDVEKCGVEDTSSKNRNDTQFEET
For test [8], the target named is rhesus PD-L1 expressed on HEK293F cells (rhesus) (UniProt F6VEW6).

Sequence of human PD-L1 expressed on cell surface (human) (Q9NZQ7 19-290): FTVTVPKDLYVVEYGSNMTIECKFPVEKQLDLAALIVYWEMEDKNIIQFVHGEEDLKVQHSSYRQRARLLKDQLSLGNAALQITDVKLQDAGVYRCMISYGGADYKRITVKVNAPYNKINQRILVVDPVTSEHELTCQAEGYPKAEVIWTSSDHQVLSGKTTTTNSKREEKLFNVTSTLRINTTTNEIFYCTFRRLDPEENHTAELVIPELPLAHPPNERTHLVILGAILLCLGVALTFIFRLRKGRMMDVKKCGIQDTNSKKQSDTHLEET
Sequence of human B7-H3 expressed on HEK293F cells (human) (Q5ZPR3 29-534): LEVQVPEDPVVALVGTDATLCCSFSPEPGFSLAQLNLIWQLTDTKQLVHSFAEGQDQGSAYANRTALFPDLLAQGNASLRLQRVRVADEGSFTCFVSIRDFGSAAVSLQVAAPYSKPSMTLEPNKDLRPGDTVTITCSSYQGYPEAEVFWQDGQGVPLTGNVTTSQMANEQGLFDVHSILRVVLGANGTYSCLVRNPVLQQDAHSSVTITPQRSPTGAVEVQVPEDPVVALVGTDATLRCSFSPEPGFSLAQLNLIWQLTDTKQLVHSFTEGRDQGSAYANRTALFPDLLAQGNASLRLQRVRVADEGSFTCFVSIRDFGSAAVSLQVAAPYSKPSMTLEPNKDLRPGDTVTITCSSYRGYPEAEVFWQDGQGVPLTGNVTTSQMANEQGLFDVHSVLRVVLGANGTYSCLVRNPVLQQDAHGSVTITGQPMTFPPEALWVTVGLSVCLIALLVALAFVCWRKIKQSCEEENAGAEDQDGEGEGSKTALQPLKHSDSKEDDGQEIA
Sequence of human CTLA4 expressed on HEK293F cells (human) (P16410 36-223): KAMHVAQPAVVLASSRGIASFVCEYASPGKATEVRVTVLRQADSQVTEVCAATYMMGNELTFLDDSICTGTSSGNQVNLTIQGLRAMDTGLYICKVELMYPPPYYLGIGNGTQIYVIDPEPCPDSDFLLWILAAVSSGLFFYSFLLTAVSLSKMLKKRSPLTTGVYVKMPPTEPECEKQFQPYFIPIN

As for Isotype control (antibody), the Mean was 2690 in test [1]; 2480 in test [2]; 2440 in test [3]; 2470 in test [4]; 3050 in test [5]; 2280 in test [6]. Further, the Mean amounted to 3030 in test [7] and 2520 in test [8].
